B1: DNA mismatch repair protein Mlh1 (Homo sapiens), P40692 (parent)
chain: MSFVAGVIRRLDETVVNRIAAGEVIQRPANAIKEMIENCLDAKSTSIQVIVKEGGLKLIQIQDNGTGIRKEDLDIVCERFTTSKLQSFEDLASISTYGFRGEALASISHVAHVTITTKTADGKCAYRASYSDGKLKAPPKPCAGNQGTQITVEDLFYNIATRRKALKNPSEEYGKILEVVGRYSVHNAGISFSVKKQGETVADVRTLPNASTVDNIRSIFGNAVSRELIEIGCEDKTLAFKMNGYISNANYSVKKCIFLLFINHRLVESTSLRKAIETVYAAYLPKNTHPFLYLSLEISPQNVDVNVHPTKHEVHFLHEESILERVQQHIESKLLGSNSSRMYFTQTLLPGLAGPSGEMVKSTTSLTSSSTSGSSDKVYAHQMVRTDSREQKLDAFLQPLSKPLSSQPQAIVTEDKTDISSGRARQQDEEMLELPAPAEVAAKNQSLEGDTTKGTSEMSEKRGPTSSNPRKRHREDSDVEMVEDDSRKEMTAACTPRRRIINLTSVLSLQEEINEQGHEVLREMLHNHSFVGCVNPQWALAQHQTKLYLLNTTKLSEELFYQILIYDFANFGVLRLSEPAPLFDLAMLALDSPESGWTEEDGPKEGLAEYIVEFLKKKAEMLADYFSLEIDEEGNLIGLPLLIDNYVPPLEGLPIFILRLATEVNWDEEKECFESLSKECAMFYSIRKQYISEESTLSGQQSEVPGSIPNSWKWTVEHIVYKALRSHILPPKHFTEDGNILQLANLPDLYKVFERC
partner: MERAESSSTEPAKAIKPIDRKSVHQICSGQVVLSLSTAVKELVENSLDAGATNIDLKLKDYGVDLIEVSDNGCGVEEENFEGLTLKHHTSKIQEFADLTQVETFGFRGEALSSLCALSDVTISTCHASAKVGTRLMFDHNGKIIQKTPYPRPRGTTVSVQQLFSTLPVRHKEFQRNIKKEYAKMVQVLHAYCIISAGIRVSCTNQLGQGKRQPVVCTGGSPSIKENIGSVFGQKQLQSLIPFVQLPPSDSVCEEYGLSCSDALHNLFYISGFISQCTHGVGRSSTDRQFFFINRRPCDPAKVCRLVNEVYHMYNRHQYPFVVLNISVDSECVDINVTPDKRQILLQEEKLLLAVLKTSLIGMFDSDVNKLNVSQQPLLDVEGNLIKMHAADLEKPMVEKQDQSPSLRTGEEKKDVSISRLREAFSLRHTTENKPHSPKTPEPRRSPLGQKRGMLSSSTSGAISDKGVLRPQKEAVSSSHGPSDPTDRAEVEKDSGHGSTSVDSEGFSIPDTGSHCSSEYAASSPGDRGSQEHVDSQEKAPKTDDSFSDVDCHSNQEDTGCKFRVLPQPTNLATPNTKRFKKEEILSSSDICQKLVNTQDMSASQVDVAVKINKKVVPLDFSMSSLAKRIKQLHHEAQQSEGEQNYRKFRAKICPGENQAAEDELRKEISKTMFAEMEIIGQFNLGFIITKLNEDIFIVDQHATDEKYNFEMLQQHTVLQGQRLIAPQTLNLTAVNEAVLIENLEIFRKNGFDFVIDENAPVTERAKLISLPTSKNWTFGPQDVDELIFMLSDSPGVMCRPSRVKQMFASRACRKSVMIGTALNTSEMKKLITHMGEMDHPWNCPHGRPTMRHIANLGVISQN
B2: DNA mismatch repair protein Mlh1 (Homo sapiens), P40692 (parent)
chain: B1 chain

Variants of: B1
Details: with pms2_human PMS2, P54278
For I107R, the “effect of a mutation on the interaction” value was “with no effect”.
For T117M, the “effect of a mutation on the interaction” value was “with no effect”.
In the case of T117R, the “effect of a mutation on the interaction” value is reported as “with no effect”.
For I68N, the “effect of a mutation on the interaction” value was “with no effect”.
For M35R, the “effect of a mutation on the interaction” value was “with no effect”.
C77Y was tested, and the “effect of a mutation on the interaction” value was “with no effect”.
In the case of S44F, the “effect of a mutation on the interaction” value is reported as “with no effect”.
With G244D the “effect of a mutation on the interaction” value was “with no effect”.
V185G was tested, and the “effect of a mutation on the interaction” value was “with no effect”.
With G67R the “effect of a mutation on the interaction” value was “with no effect”.
For V326A, the “effect of a mutation on the interaction” value was “with no effect”.
For A128P, the “effect of a mutation on the interaction” value was “with no effect”.
With P28L the “effect of a mutation on the interaction” value was “with no effect”.

Variants of: B1
Details: with pms2_human PMS2, P54278
Remark: another data set of the same source
For I107R, the “effect of a mutation on the interaction” value was “disrupting interaction strength”.
With T117M the “effect of a mutation on the interaction” value was “disrupting interaction strength”.
For T117R, the “effect of a mutation on the interaction” value was “disrupting interaction strength”.
For I68N, the “effect of a mutation on the interaction” value was “disrupting interaction strength”.
S406N was tested, and the “effect of a mutation on the interaction” value was “with no effect”.
For M35R, the “effect of a mutation on the interaction” value was “disrupting interaction strength”.
With R265H the “effect of a mutation on the interaction” value was “with no effect”.
For C77Y, the “effect of a mutation on the interaction” value was “disrupting interaction strength”.
With I32V the “effect of a mutation on the interaction” value was “with no effect”.
With S44F the “effect of a mutation on the interaction” value was “disrupting interaction strength”.
For G244D, the “effect of a mutation on the interaction” value was “disrupting interaction strength”.
In the case of V185G, the “effect of a mutation on the interaction” value is reported as “disrupting interaction strength”.
With G67R the “effect of a mutation on the interaction” value was “disrupting interaction strength”.
V213M was tested, and the “effect of a mutation on the interaction” value was “with no effect”.
In the case of I219L, the “effect of a mutation on the interaction” value is reported as “with no effect”.
In the case of I219V, the “effect of a mutation on the interaction” value is reported as “with no effect”.
R217C was tested, and the “effect of a mutation on the interaction” value was “with no effect”.
For A128P, the “effect of a mutation on the interaction” value was “disrupting interaction strength”.
In the case of P28L, the “effect of a mutation on the interaction” value is reported as “disrupting interaction strength”.

Variants of: B1
Details: with pms2_human PMS2, P54278
Remark: another data set of the same source
In the case of C77Y, the “effect of a mutation on the interaction” value is reported as “decreasing interaction strength”.

Variants of: B2
Details: with exo1_human EXO1, Q9UQ84
C77Y was tested, and the “effect of a mutation on the interaction” value was “disrupting interaction strength”.
I107R was tested, and the “effect of a mutation on the interaction” value was “disrupting interaction strength”.
In the case of V185G, the “effect of a mutation on the interaction” value is reported as “disrupting interaction strength”.
G244D was tested, and the “effect of a mutation on the interaction” value was “disrupting interaction strength”.
P28L was tested, and the “effect of a mutation on the interaction” value was “disrupting interaction strength”.
A128P was tested, and the “effect of a mutation on the interaction” value was “disrupting interaction strength”.
S44F was tested, and the “effect of a mutation on the interaction” value was “disrupting interaction strength”.
In the case of V326A, the “effect of a mutation on the interaction” value is reported as “with no effect”.
For V213M, the “effect of a mutation on the interaction” value was “with no effect”.
G67R was tested, and the “effect of a mutation on the interaction” value was “disrupting interaction strength”.
T117R was tested, and the “effect of a mutation on the interaction” value was “disrupting interaction strength”.
With T117M the “effect of a mutation on the interaction” value was “disrupting interaction strength”.
I32V was tested, and the “effect of a mutation on the interaction” value was “with no effect”.
In the case of I219L, the “effect of a mutation on the interaction” value is reported as “with no effect”.
I219V was tested, and the “effect of a mutation on the interaction” value was “with no effect”.
For M35R, the “effect of a mutation on the interaction” value was “disrupting interaction strength”.
I68N was tested, and the “effect of a mutation on the interaction” value was “disrupting interaction strength”.
R217C was tested, and the “effect of a mutation on the interaction” value was “with no effect”.
S406N was tested, and the “effect of a mutation on the interaction” value was “with no effect”.
For R265H, the “effect of a mutation on the interaction” value was “with no effect”.

From IntAct's records for PubMed 12810663
